By Kd is commonly meant a measure of binding affinity in units of concentration. The low end stands for a tighter complex, the high end for a looser complex.

First the molecules themselves.
B1: IgG1-F1080 (antibody)
heavy: QVQLQESGPGLVKPSETLSLTCAVSGHSISHDHAWSWVRQPPGEGLEWIGFISYSGITNYNPSLQGRVTISRDNSKNTLYLQMNSLRAEDTAVYYCARSLARTTAMDYWGEGTLVTVSSASTKGPSVFPLAPSSKSTSGGTAALGCLVKDYFPEPVTVSWNSGALTSGVHTFPAVLQSSGLYSLSSVVTVPSSSLGTQTYICNVNHKPSNTKVDKKVEPKSCDKTHTCPPCPAPELLGGPSVFLFPPKPKDTLYISRTPEVTCVVVDVSHEDPEVKFNWYVDGVEVHNAKTKPREEQYNSTYRVVSVLTVLHQDWLNGKEYKCKVSNKALPAPIEKTISKAKGQPREPQVYTLPPSRDELTKNQVSLTCLVKGFYPSDIAVEWESNGQPENNYKTTPPVLDSDGSFFLYSKLTVDKSRWQQGNVFNCSVMHEALHYHYTQKSLSLSP
light: not shown
notes: VH3-IgG1 with Fc substitutions (EU numbering) + L(WT)-CK
B2: IgG1-F1106 (antibody)
heavy: B1 heavy with N426S, Y438V, Q440R, S442E
light: not shown
notes: as for B1
B3: IgG1-F1120 (antibody)
heavy: B1 heavy with T252V, T309Q, V310P, Q313A, N426R, Y438V
light: not shown
notes: as for B1
B4: IgG1-F1113 (antibody)
heavy: B1 heavy with N426S, Y438V, S442D
light: not shown
notes: as for B1
B5: IgG1-F1118 (antibody)
heavy: B1 heavy with T252V, T309Q, V310P, Q313A, Y438V
light: not shown
notes: as for B1
B6: IgG1-F1107 (antibody)
heavy: B1 heavy with V424D, N426S, Y438V
light: not shown
notes: as for B1
B7: IgG1-F1082 (antibody)
heavy: B1 heavy with N426S, Q440N
light: not shown
notes: as for B1
B8: IgG1-F1098 (antibody)
heavy: B1 heavy with S241D, N426S
light: not shown
notes: as for B1
B9: IgG1-F1128 (antibody)
heavy: B1 heavy with Q313H, N426S, Y438V
light: not shown
notes: as for B1
B10: IgG1-F1127 (antibody)
heavy: B1 heavy with Q313A, N426S, Y438V
light: not shown
notes: as for B1
B11: IgG1-F1100 (antibody)
heavy: B1 heavy with S241D, K328D, L330Y, N426S
light: not shown
notes: as for B1
B12: IgG1-F1122 (antibody)
heavy: B1 heavy with T252V, T309Q, V310P, Q313A, N426S, Y438V, Q440R
light: not shown
notes: as for B1
B13: IgG1-F1110 (antibody)
heavy: B1 heavy with V424Q, N426S, Y438V
light: not shown
notes: as for B1
B14: IgG1-F1121 (antibody)
heavy: B1 heavy with T252V, T309Q, V310P, Q313A, V424E, N426R, Y438V
light: not shown
notes: as for B1
B15: IgG1-F1115 (antibody)
heavy: B1 heavy with Y438V
light: not shown
notes: as for B1
B16: IgG1-F1116 (antibody)
heavy: B1 heavy with T309Q, Q313A
light: not shown
notes: as for B1
B17: IgG1-F1111 (antibody)
heavy: B1 heavy with N426K, Y438V
light: not shown
notes: as for B1
B18: IgG1-F1096 (antibody)
heavy: B1 heavy with Q388T, N426S
light: not shown
notes: as for B1
B19: IgG1-F1117 (antibody)
heavy: B1 heavy with T252V, T309Q, Q313A, Y438V
light: not shown
notes: as for B1
B20: IgG1-F1126 (antibody)
heavy: B1 heavy with T309A, N426S, Y438V
light: not shown
notes: as for B1
B21: IgG1-F1108 (antibody)
heavy: B1 heavy with V424K, N426S, Y438V
light: not shown
notes: as for B1
B22: IgG1-F1095 (antibody)
heavy: B1 heavy with S385N, G387S, N426S
light: not shown
notes: as for B1
B23: IgG1-F1124 (antibody)
heavy: B1 heavy with T252V, T309Q, V310P, Q313A, N426S, Y438V, Q440R, S442E
light: not shown
notes: as for B1
B24: IgG1-F1123 (antibody)
heavy: B1 heavy with T252V, T309Q, V310P, Q313A, N426S, Y438V, S442E
light: not shown
notes: as for B1
B25: IgG1-F1109 (antibody)
heavy: B1 heavy with V424T, N426S, Y438V
light: not shown
notes: as for B1
B26: IgG1-F1119 (antibody)
heavy: B1 heavy with T252V, T309Q, V310P, Q313A, V424E, N426S, Y438V
light: not shown
notes: as for B1
B27: IgG1-F1104 (antibody)
heavy: B1 heavy with V424E, N426R, Y438V
light: not shown
notes: as for B1
B28: IgG1-F1130 (antibody)
heavy: B1 heavy with T309A, Q313A, N426S, Y438V
light: not shown
notes: as for B1
B29: IgG1-F1131 (antibody)
heavy: B1 heavy with L237R, S241K, V424E, N426S, Y438V
light: not shown
notes: as for B1
B30: IgG1-F1097 (antibody)
heavy: B1 heavy with G387N, P389S, N426S
light: not shown
notes: as for B1
B31: IgG1-F1129 (antibody)
heavy: B1 heavy with T309Q, Q313H, N426S, Y438V
light: not shown
notes: as for B1
B32: IgG1-F1114 (antibody)
heavy: B1 heavy with N426S, Y438V, S442Q
light: not shown
notes: as for B1
B33: IgG1-F1102 (antibody)
heavy: B1 heavy with T309Q, Q313A, K328D, L330Y, N426S
light: not shown
notes: as for B1
B34: IgG1-F1112 (antibody)
heavy: B1 heavy with N426S, Y438V, Q440K
light: not shown
notes: as for B1
B35: IgG1-F1083 (antibody)
heavy: B1 heavy with N426S, S442N
light: not shown
notes: as for B1
B36: IgG1-F1101 (antibody)
heavy: B1 heavy with S241D, T309Q, Q313A, N426S
light: not shown
notes: as for B1
B37: IgG1-F1099 (antibody)
heavy: B1 heavy with K328D, L330Y, N426S
light: not shown
notes: as for B1
B38: IgG1-F1103 (antibody)
heavy: B1 heavy with S241D, T309Q, Q313A, K328D, L330Y, N426S
light: not shown
notes: as for B1
B39: IgG1-F1105 (antibody)
heavy: B1 heavy with V424S, N426R, Y438V
light: not shown
notes: as for B1

Changes are numbered by the printed parent chain.

T1 sequence (P55899 24-297 limits assumed, chain 1 of 2): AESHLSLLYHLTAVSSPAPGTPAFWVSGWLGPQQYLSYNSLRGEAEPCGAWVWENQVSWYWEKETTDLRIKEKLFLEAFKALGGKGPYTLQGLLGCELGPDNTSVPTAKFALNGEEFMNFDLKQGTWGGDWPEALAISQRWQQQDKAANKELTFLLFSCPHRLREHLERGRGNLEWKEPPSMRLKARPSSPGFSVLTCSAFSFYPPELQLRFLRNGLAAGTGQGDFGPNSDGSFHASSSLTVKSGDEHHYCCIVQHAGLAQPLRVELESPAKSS
T1 sequence (P61769 21-119 limits assumed, chain 2 of 2): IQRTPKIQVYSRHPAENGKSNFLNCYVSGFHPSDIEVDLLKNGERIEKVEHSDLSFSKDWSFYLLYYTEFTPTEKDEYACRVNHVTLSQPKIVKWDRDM

The assay addresses T1, soluble human FcRn (heterodimer of FcRn alpha chain and beta2-microglobulin) (human, UniProt P55899 24-297; P61769 21-119).
T1 construct: Expressed in HEK293H and purified on IgG Sepharose; also called hFcRn
As to the kind of experiment: SPR Biacore T100, antibody captured via protein L, hFcRn analyte, pH 7.0, 25 C.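 Further: KD derived from kinetic ka and kd fits of sensorgrams, CM4 sensor chip, sodium phosphate NaCl Tween20 running buffer, buffer-only injection used as reference.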 On the technique in general: In SPR one partner is held on a chip, and binding of the other changes the refractive index at the surface.
Experimental: An appropriate amount of protein L (ACTIGEN) was immobilized onto Sensor chip CM4 (GE Healthcare) by the amino coupling method, and the chip was allowed to capture an antibody of interest. Then, diluted FcRn solutions and running buffer (as a reference solution) were injected to allow human FcRn to interact with the antibody captured on the sensor chip. The running buffer used comprised 50 mmol/l sodium phosphate, 150 mmol/l NaCl, and 0.05% (w/v) Tween20 (pH 7.0). FcRn was diluted using each buffer. The chip was regenerated using 10 mmol/l glycine-HCl (pH 1.5). Assays were carried out exclusively at 25 degrees C. The association rate constant ka (1/Ms) and dissociation rate constant kd (1/s), both of which are kinetic parameters, were calculated based on the sensorgrams obtained in the assays, and KD (M) of each antibody for human FcRn was determined from these values. Each parameter was calculated using Biacore T100 Evaluation Software (GE Healthcare).
B1 returned a Kd of 320 nM.

The molecule B2 displayed a Kd of 140 nM.

For B3, the affinity, expressed as Kd, was 10 nM.

Consider B4, for which the affinity, expressed as Kd, was 120 nM.

Turning to B5, the affinity, expressed as Kd, was 13 nM.

Take B6: the dissociation constant Kd turned out to be 120 nM.

Consider B7, for which binding was put at a Kd of 280 nM.

In turn, B8 came in with a Kd of 260 nM.

With B9, the Kd turned out to be 120 nM.

As for B10, the dissociation constant (Kd) was 79 nM.

The molecule B11 had a Kd of 240 nM.

The molecule B12 came in with a dissociation constant (Kd) of 14 nM.

B13 yielded a Kd of 130 nM.

B14 returned an equilibrium dissociation constant (Kd) of 10 nM.

In turn, B15 yielded a Kd of 130 nM.

For the molecule B16, binding was characterised by a dissociation constant (Kd) of 74 nM.

Regarding B17, binding was characterised by a dissociation constant (Kd) of 160 nM.

B18 had a dissociation constant Kd of 270 nM.

B19 showed a Kd of 49 nM.

Turning to B20, the Kd was found to be 90 nM.

Turning to B21, the affinity, expressed as Kd, was 130 nM.

In turn, B22 registered a Kd of 290 nM.

B23 had a Kd of 12 nM.

In the case of B24, binding was put at a Kd of 9.5 nM.

Turning to B25, the equilibrium dissociation constant (Kd) was 130 nM.

As for B26, the dissociation constant (Kd) came out at 10 nM.

As for B27, binding was put at a Kd of 180 nM.

Take B28: the Kd came out at 55 nM.

As to B29, the dissociation constant Kd worked out at 130 nM.

Molecule B30 yielded a Kd of 280 nM.

As to B31, binding was characterised by a dissociation constant (Kd) of 45 nM.

B32 came in with a Kd of 130 nM.

B33 had a Kd of 65 nM.

As for B34, binding was characterised by a dissociation constant (Kd) of 120 nM.

In the case of B35, the dissociation constant Kd worked out at 350 nM.

B36: the dissociation constant (Kd) worked out at 66 nM.

Consider B37, for which binding was put at a Kd of 260 nM.

The molecule B38 returned a Kd of 61 nM.

B39 showed a Kd of 150 nM.
